Measured values published in publication PMC2788528.

Target: CEACAM3 WT-HA-CyPet, tyrosine-phosphorylated (coexpressed with v-Src) (UniProt P40198)
Assay: FRET or BRET; flow cytometric FRET in intact cotransfected 293T cells (with or without v-Src); CyPet and YPet double-positive cells gated; FRET channel excitation 405 nm, emission 525/50 nm; LSR II

Sequence of UniProt P40198 (P40198 35-252): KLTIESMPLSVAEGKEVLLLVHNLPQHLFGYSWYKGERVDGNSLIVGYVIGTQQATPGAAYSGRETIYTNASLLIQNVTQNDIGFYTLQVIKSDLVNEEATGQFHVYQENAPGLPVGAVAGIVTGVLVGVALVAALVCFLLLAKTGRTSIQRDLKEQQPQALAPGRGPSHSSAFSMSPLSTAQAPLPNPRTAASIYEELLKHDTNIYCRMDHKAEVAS

- fold increase in the mean fluorescence intensity in the FRET channel: 4 fold
Substance: YPet-Hck-SH2 (SH2 domain of human Hck fused to YPet) (from UniProt P08631 144-241) (domain or fragment)
